The values that follow come from publication PMC9307851.

The test addresses DNMT3B MTase domain (residues 569-853), R670Q (human) (UniProt Q9UBC3).

Turning to “DNMT3B MTase domain (residues 569-853), R670Q (from UniProt Q9UBC3-1 569-853) (domain or fragment)”, the in vitro DNA methylation efficiency of the DNMT3B-DNMT3B complex on CpG DNA, reduction against WT is 3 fold.
